{"source": "patent CN111705065A", "binders": {"B1": {"name": "抗KRAS突变体单克隆抗体 KRAS Mut mAb (antibody, V domains shown)", "VH": "QIQLQESGPGLVKPSQSLSLTCTVTGYSITSDYAWNWIRQFPGNKLEWMGYINYSGSTSYNPSLKSRISITRDTSKNQFFLQLISVTSEDTATYYCAGSGYVRGFAYWGQGTLVTVSA", "VL": "DICKTQSHKFMSTSVGDRVSITCKASQDVGTAVAWYQQKPGQSPKLLIYWASTRHTGVPDRFTGSESGTDFTLTISNVQSEDLADYFCQQYSSYPYTFGGGTKLEIKR"}}, "target": "重组KRAS突变体蛋白 (KRAS Mut)", "sequence (chain, as listed by the source limits assumed)": "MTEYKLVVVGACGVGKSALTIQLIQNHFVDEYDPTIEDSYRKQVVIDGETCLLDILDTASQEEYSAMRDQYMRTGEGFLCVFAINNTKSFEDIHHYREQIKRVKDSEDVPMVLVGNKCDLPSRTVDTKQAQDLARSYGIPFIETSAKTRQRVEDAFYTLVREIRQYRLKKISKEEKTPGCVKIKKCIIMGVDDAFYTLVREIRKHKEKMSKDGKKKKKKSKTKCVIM", "experiment": "indirect ELISA, KRAS Mut coated at 1 μg/mL, antibody diluted 1:10^3 to 1:10^6, HRP goat anti-mouse, OD450", "data": [{"binder": "B1", "values": [{"measurement": "效价 (ELISA titer) (dilution factor (1:x))", "value": 100000}]}]}
